Literature values as cited in paper PMC5325457.

Molecular target: Mms2 (Homo sapiens) (UniProt Q15819)
Chain of UniProt Q15819 (Q15819 2-145): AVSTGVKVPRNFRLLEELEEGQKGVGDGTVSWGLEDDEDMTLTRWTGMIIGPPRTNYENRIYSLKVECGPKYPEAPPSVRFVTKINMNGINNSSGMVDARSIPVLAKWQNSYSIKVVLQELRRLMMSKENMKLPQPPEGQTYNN

Ubc13 (from UniProt P61088)
Kd: 49 nM
